Assay [1] deals with T1, Flag-Plk3(K52R) (UniProt Q9H4B4 40-646, K52R).
T1 construct: A gift construct; K52 may be counted on another entry than the printed human one; not shown: Flag tag
Nature of the assay: assay not given; pull-downs of Examples 3 and 6.

Assay [2] has as its target T2, Flag-Plk2(K607R, Y626F) (UniProt Q9NYY3 1-685).
T2 construct: not shown: Flag tag
Nature of the assay: pull-down of transfected HeLa lysate with immobilised MQSpTPL (FIG. 15B).

Assay [3] concerns the target T3, Flag-Plk2(L606F, K607R, 5608T, D609R, K610S, Y626F, H627Q) (UniProt Q9NYY3 1-685).
T3 construct: 5608T is read as S608T; not shown: Flag tag
Described as above.

Assay [4] concerns the target T1, Flag-Plk3(K52R). The experiment in a line: pull-down from mixed HeLa lysates, anti-Flag blot (FIG. 4B).
Assay [5] addresses T4, Plk1 (endogenous, in mitotic HeLa cell lysates) (UniProt P53350 2-603).
T4 construct: Endogenous full-length protein in total lysate of nocodazole-arrested HeLa cells; also called polo-like kinase 1
Nature of the assay: pull-down from mitotic HeLa lysate with bead-immobilised peptide (FIG. 4A).

Assay [6] concerns the target T5, HA-EGFP-Plk1 (UniProt P53350 1-603).
T5 construct: also called full-length Plk1 (ELISA); not shown: HA tag and EGFP
Nature of the assay: ELISA competition (FIG. 16A). (An ELISA detects its analyte on a solid surface through an enzyme-linked reagent.)

In assay [7] the target is T4, Plk1 (endogenous, in mitotic HeLa cell …). Nature of the assay: pull-down from mitotic HeLa lysate with bead-immobilised peptide (FIG. 13A).
The target in assay [8] is T5, HA-EGFP-Plk1. The experiment in a line: ELISA competition on immobilised biotinylated p-T78 9-mer (FIG. 16A).

Starred links: 1 amine or outer side, 2 acyl side, 3 side chain; linkers in the order of their positions; H or OH if unused. Non-standard residues stand in square brackets, D forms with d. No end group written: not given here. F2Pmab = 2-amino-4,4-difluoro-3-methyl-4-phosphobutanoic acid, in place of p-Thr, C[C@H]([C@H](N[*:1])C(=O)[*:2])C(F)(F)P(=O)(O)O; Abu(3R-Me,4-PO3H2) = C[C@@H](CP(=O)(O)O)[C@H](N)C(=O)O; pT = C[C@@H](OP(=O)(O)O)[C@H](N)C(=O)O

T4 sequence (P53350 2-603 limits assumed): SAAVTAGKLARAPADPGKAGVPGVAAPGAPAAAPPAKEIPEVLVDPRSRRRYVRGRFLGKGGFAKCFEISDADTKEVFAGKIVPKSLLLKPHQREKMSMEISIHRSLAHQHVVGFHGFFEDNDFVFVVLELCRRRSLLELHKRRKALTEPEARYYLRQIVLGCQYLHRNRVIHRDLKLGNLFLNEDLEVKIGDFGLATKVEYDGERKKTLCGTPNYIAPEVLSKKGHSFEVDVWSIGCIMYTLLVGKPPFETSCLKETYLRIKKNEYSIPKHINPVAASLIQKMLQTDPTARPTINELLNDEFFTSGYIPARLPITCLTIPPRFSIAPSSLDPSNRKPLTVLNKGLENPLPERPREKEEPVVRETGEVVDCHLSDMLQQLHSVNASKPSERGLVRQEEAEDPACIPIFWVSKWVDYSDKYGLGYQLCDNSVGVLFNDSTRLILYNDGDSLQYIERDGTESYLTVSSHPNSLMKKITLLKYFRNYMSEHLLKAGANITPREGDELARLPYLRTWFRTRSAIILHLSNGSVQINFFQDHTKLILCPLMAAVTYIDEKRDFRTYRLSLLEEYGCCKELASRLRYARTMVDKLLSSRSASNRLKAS
T5 sequence (P53350 whole entry): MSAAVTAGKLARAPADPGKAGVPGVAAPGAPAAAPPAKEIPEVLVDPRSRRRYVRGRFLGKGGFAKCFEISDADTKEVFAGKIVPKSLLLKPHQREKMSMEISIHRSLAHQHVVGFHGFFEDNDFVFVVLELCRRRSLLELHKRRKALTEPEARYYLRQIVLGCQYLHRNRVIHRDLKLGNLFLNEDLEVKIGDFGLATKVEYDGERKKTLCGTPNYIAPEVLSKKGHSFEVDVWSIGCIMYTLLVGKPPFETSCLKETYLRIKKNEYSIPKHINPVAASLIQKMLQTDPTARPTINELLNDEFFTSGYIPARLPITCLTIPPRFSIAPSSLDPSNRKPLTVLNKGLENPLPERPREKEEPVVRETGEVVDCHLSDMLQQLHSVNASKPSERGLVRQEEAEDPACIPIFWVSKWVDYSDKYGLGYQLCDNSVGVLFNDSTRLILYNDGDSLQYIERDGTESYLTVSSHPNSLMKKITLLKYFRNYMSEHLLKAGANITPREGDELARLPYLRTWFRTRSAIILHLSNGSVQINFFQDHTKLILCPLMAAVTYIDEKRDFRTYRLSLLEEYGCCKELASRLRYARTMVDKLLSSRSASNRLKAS
T1 sequence (Q9H4B4 40-646 K91R): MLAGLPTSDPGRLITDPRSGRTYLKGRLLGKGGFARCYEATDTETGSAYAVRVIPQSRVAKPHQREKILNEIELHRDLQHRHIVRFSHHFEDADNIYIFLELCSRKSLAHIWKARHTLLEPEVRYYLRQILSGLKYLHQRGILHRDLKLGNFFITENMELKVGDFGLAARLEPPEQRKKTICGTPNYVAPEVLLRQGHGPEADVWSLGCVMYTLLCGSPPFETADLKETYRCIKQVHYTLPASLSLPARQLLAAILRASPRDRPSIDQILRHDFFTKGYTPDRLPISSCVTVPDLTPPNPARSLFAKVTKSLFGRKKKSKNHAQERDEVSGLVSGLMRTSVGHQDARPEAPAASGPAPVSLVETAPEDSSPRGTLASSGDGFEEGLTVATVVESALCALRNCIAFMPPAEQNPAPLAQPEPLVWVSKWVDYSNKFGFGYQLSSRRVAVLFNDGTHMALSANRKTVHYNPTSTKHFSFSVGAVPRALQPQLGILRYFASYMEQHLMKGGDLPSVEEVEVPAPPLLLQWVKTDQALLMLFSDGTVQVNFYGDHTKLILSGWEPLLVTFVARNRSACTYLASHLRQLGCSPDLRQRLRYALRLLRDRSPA
T2 sequence (Q9NYY3 whole entry K607R/Y626F): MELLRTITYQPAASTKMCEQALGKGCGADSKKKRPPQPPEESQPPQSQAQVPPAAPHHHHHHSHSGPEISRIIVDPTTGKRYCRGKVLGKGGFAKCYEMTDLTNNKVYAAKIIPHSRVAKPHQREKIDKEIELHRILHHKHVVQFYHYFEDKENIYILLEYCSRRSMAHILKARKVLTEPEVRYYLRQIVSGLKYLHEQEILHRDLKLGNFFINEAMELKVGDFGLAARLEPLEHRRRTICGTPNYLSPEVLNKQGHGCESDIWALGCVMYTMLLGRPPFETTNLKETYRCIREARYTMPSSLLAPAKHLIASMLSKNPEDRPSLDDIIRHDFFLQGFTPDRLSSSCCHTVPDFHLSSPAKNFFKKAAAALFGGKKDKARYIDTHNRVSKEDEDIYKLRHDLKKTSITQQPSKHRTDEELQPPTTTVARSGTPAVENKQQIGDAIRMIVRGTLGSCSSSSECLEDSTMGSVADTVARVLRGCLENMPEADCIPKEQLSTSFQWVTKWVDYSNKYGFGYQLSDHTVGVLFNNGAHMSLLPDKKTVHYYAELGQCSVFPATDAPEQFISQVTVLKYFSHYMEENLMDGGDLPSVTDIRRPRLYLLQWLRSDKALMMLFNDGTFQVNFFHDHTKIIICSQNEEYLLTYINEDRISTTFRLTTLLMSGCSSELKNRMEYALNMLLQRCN
T3 sequence (Q9NYY3 whole entry L606F/K607R/S608T/D609R/K610S/Y626F/H627Q): as the sequence (Q9NYY3 whole entry K607R/Y626F) above, with L606F, S608T, D609R, K610S, H627Q counted along it

B1: PLHSpT (peptide)
peptide: PLHS[pT]
modifications: also: Ac and C-terminal amide in soluble form, N-terminal Cys-(CH2)6 linker in pull-down form
notes: Derived from the Thr78 region of PBIP1; also called Ac-PLHSpT-NH2; C-(CH2)6-PLHSpT
Regarding B1, in assay [1], the binding result is “no binding”. For the molecule MQS[pT]PL (also: in pull-downs N-terminal Cys-(CH2)6 linker cross-linked to beads, also called synthetic optimal peptide) [MQSpTPL], the binding result in assay [2] and in assay [3] was “no binding” in each case.

B2: PLHS-Pmab (peptide)
peptide: PLHS[Abu(3R-Me,4-PO3H2)]
modifications: also: N-acetylated in soluble form, N-terminal Cys-(CH2)6 linker in pull-down form
notes: also called C-(CH2)6-PLHS-Pmab
For the molecule B2, the binding result in assay [4] was “no binding”.

B3: PLHA-Pmab (peptide)
peptide: PLHA[Abu(3R-Me,4-PO3H2)]
modifications: also: N-acetylated in soluble form
notes: also called Pmab(S77A); C-(CH2)6-PLHA-Pmab
Regarding B3, the binding result in assay [5] is recorded as “no binding”. Turning to PLHS[F2Pmab]A (also: in pull-downs N-terminal Cys-(CH2)6 linker cross-linked to beads, also called C-(CH2)6-PLHS-F2Pmab-A) [PLHS-F2Pmab-A], the binding result in assay [6] is listed as “binds”.

B4: PLHA-F2Pmab-A (peptide)
peptide: PLHA[F2Pmab]A
modifications: also: in pull-downs N-terminal Cys-(CH2)6 linker cross-linked to beads
notes: also called F2Pmab(S77A); C-(CH2)6-PLHA-F2Pmab-A
For the molecule B4, the results for the binding result in assay [7] and in assay [8] were “no binding” and “no binding (tested: 1000-fold higher molar concentrations)”, respectively.
